Read-outs that look alike come from different tables or passages of the source. TMR = 6-carboxytetramethylrhodamine
B1: His6-JNK1α1 (enzyme, UniProt P45983-2 1-384, looked up)
chain: MSRSKRDNNFYSVEIGDSTFTVLKRYQNLKPIGSGAQGIVCAAYDAILERNVAIKKLSRPFQNQTHAKRAYRELVLMKCVNHKNIIGLLNVFTPQKSLEEFQDVYIVMELMDANLCQVIQMELDHERMSYLLYQMLCGIKHLHSAGIIHRDLKPSNIVVKSDCTLKILDFGLARTAGTSFMMTPYVVTRYYRAPEVILGMGYKENVDLWSVGCIMGEMVCHKILFPGRDYIDQWNKVIEQLGTPCPEFMKKLQPTVRTYVENRPKYAGYSFEKLFPDVLFPADSEHNKLKASQARDLLSKMLVIDASKRISVDEALQHPYINVWYDPSEAEAPPPKIPDKQLDEREHTIEEWKELIYKEVMDLEERTKNGVIRGQPSPLAQVQQ
B2: TMR-JIPtide (peptide)
peptide: {TMR}-RPKRPTTLNLF-OH

Tests used:
Assay in all cases: fluorescence polarisation
TMR-JIPtide = biological target: B2
His6-JNK1α1 [1] = biological target: B1
His6-JNK2α1 [2] = biological target: T1, His6-JNK2α1 (UniProt P45984-2 1-382)
His6-JNK3α1 [3] = biological target: T2, His6-JNK3α1 (UniProt P53779-2 1-422)
His6-JNK1α1 [4] = biological target: B1; remark: listed apart in the source
His6-JNK2α1 [5] = biological target: T1, His6-JNK2α1; remark: listed apart in the source
His6-JNK3α1 [6] = biological target: T2, His6-JNK3α1; remark: listed apart in the source
His6-JNK1α1 [7] = biological target: B1; remark: listed apart in the source
His6-JNK2α1 [8] = biological target: T1, His6-JNK2α1; remark: listed apart in the source
His6-JNK3α1 [9] = biological target: T2, His6-JNK3α1; remark: listed apart in the source
His6-JNK1α1 [10] = biological target: B1; remark: listed apart in the source
His6-JNK2α1 [11] = biological target: T1, His6-JNK2α1; remark: listed apart in the source
His6-JNK3α1 [12] = biological target: T2, His6-JNK3α1; remark: listed apart in the source
His6-JNK1α1 [13] = biological target: B1; remark: listed apart in the source
His6-JNK2α1 [14] = biological target: T1, His6-JNK2α1; remark: listed apart in the source
His6-JNK3α1 [15] = biological target: T2, His6-JNK3α1; remark: listed apart in the source
His6-JNK1α1 [16] = biological target: B1; remark: listed apart in the source
His6-JNK2α1 [17] = biological target: T1, His6-JNK2α1; remark: listed apart in the source
His6-JNK3α1 [18] = biological target: T2, His6-JNK3α1; remark: listed apart in the source
His6-JNK3α1 [19] = biological target: T2, His6-JNK3α1; remark: listed apart in the source
His6-JNK1α1 [20] = biological target: B1; remark: listed apart in the source
His6-JNK2α1 [21] = biological target: T1, His6-JNK2α1; remark: listed apart in the source
His6-JNK3α1 [22] = biological target: T2, His6-JNK3α1; remark: listed apart in the source

Binder: B1
fold tighter binding than apo-JNK1 (TMR-JIPtide): 2 fold

Binder: B2
Kd (His6-JNK1α1 [1]): 0.68 µM
Kd (His6-JNK2α1 [2]): 37 µM
Kd (His6-JNK3α1 [3]): 1.7 µM
Kd (His6-JNK1α1 [4]): 0.44 µM
Kd (His6-JNK2α1 [5]): 5.1 µM
Kd (His6-JNK3α1 [6]): 1.5 µM
Kd (His6-JNK1α1 [7]): 3.2 µM
Kd (His6-JNK2α1 [8]): 15 µM
Kd (His6-JNK3α1 [9]): 4.6 µM
Kd (His6-JNK1α1 [10]): 0.23 µM
Kd (His6-JNK2α1 [11]): 4.6 µM
Kd (His6-JNK3α1 [12]): 0.48 µM
Kd (His6-JNK1α1 [13]): 1.5 µM
Kd (His6-JNK2α1 [14]): 6 µM
Kd (His6-JNK3α1 [15]): 2.8 µM
Kd (His6-JNK1α1 [16]): 0.25 µM
Kd (His6-JNK2α1 [17]): 3 µM
Kd (His6-JNK3α1 [18]): 0.64 µM
Kd (His6-JNK3α1 [19]): 1.9 µM
Kd (His6-JNK1α1 [20]): 14 µM
Kd (His6-JNK2α1 [21]): 17 µM
Kd (His6-JNK3α1 [22]): 12 µM

Reference: publication PMC6338552 (Biochemistry, 2018)
